The results in this text go back to publication PMC5099905.

For the assay, the target named is E-cadherin (canine (endogenous in MDCK)). The experiment in a line: co-IP; 1 mg MDCK lysate (RIPA buffer) from Mock or DDR1-knockdown (Sh-DDR1) cells, incubated overnight at 4 °C with 1 μg anti-E-cadherin antibody, protein G-sepharose beads; immunoblot with anti-clathrin heavy chain; control antibody as negative control. Background: Immunoblotting shows a protein as a band on a membrane.

Consider clathrin heavy chain (natural protein), for which the fold increase of the clathrin/E-cadherin co-IP ratio, Sh-DDR1 cells against Mock cells is 3.5 fold.
